± gives the uncertainty stated by the source.
B1: COUP transcription factor 1, residues 83 to 159; numbered along this chain, P10589 (parent)
chain: HIECVVCGDKSSGKHYGQFTCEGCKSFFKRSVRRNLTYTCRANRNCPIDQHHRNQCQYCRLKKCLKVGMRREAVQRG

Variants of: B1
Assay: abundance fitness (aPCA) (normalised: wild type 0, dead -1); higher = more abundant; growth selection in yeast, the domain comes from the species named
Conditions: Homo sapiens

Row | Variant | abundance fitness
1 | E3F | -0.173 ± 0.35
2 | E3M | -0.07 ± 0.084
3 | E3N | -0.222 ± 0.14
4 | C40D | -0.51 ± 0.15
5 | C40Y | -0.704 ± 0.21
6 | C40L | -0.786 ± 0.086
7 | C40V | -0.861 ± 0.077
8 | R76S | -0.048 ± 0.046
9 | R76T | 0.025 ± 0.051
10 | R76G | 0.161 ± 0.034
11 | R76Y | 0.046 ± 0.075
12 | R76F | 0.097 ± 0.1
13 | R76P | -0.197 ± 0.07
14 | C24Y | -0.319 ± 0.16
15 | C24K | -0.697 ± 0.12
16 | C24P | -0.609 ± 0.12
17 | R41A | 0.207 ± 0.049
18 | R41K | 0.301 ± 0.075
19 | R41M | 0.08 ± 0.078
20 | R41H | 0.051 ± 0.12
21 | R41G | 0.188 ± 0.042

Row | Variant | abundance fitness
22 | H15R | -0.364 ± 0.14
23 | H15C | -0.362 ± 0.25
24 | H15K | -0.857 ± 0.5
25 | H15D | -0.226 ± 0.24
26 | H15W | 0.196 ± 0.14
27 | H15S | -0.212 ± 0.12
28 | H15E | 0.202 ± 0.26
29 | K63H | -0.114 ± 0.085
30 | K63A | -0.254 ± 0.045
31 | K63S | -0.464 ± 0.059
32 | K14L | 0.111 ± 0.08
33 | G77L | -0.095 ± 0.064
34 | G77D | 0.117 ± 0.093
35 | G77C | -0.096 ± 0.069
36 | G77R | -0.058 ± 0.046
37 | G77I | -0.042 ± 0.11
38 | G77M | -0.017 ± 0.12
39 | G77P | -0.013 ± 0.071
40 | G77E | 0.06 ± 0.1
41 | G68S | -0.593 ± 0.068
42 | G68N | -0.211 ± 0.085

Row | Variant | abundance fitness
43 | G68V | -0.671 ± 0.059
44 | G68E | -0.524 ± 0.06
45 | G68Y | -0.436 ± 0.12
46 | V6L | -0.889 ± 0.15
47 | V6D | -0.736 ± 0.16
48 | C56S | -0.723 ± 0.15
49 | C56I | -0.627 ± 0.19
50 | C56A | -0.552 ± 0.098
51 | C56E | -0.87 ± 0.15
52 | C56V | -0.758 ± 0.093
53 | C56N | -0.373 ± 0.21
54 | A73V | -0.052 ± 0.037
55 | A73N | 0.064 ± 0.065
56 | A73T | -0.034 ± 0.048
57 | A73F | 0.02 ± 0.061
58 | Q18I | -0.051 ± 0.18
59 | Q18M | 0.067 ± 0.12
60 | Q18C | 0.187 ± 0.091
61 | Q18E | 0.143 ± 0.054
62 | Q18F | 0.151 ± 0.21
63 | Q18A | 0.098 ± 0.057

Row | Variant | abundance fitness
64 | Q18D | 0.08 ± 0.13
65 | Q18L | 0.01 ± 0.065
66 | T39A | 0.17 ± 0.064
67 | T39E | 0.191 ± 0.087
68 | T39G | -0.099 ± 0.057
69 | T39W | 0.057 ± 0.1
70 | L36G | -0.17 ± 0.052
71 | L36P | 0.03 ± 0.089
72 | L36M | -0.085 ± 0.095
73 | L36D | -0.232 ± 0.22
74 | L36S | -0.147 ± 0.083
75 | C4H | -1.23 ± 0.25
76 | C4S | -0.515 ± 0.062
77 | C4L | -1.05 ± 0.14
78 | C4N | -1.17 ± 0.23
79 | C4I | -0.998 ± 0.14
80 | C4G | -0.731 ± 0.11
81 | C46Q | -0.18 ± 0.16
82 | C46D | -0.572 ± 0.24
83 | C46H | -0.536 ± 0.22
84 | C46P | -0.587 ± 0.18

— the Human Domainome abundance scans (Beltran et al. 2025)
